Key:
[1] = molecular target: T1, GFP-USP9X catalytically inactive mutant (C1566S) (mouse) (mouse, UniProt P70398 1-2559, C1566S); assay: co-IP; anti-Flag immunoprecipitation from lysates of HEK293 cells expressing Flag-NPHP5 or its fragments (alone or with GFP-tagged partner), Western blot; settings: partners not purified
T1 construct: mouse USP9X C1566S cDNA (from S. Wood) sub-cloned into pEGFP-C1; pEGFP-C1 is expected to place EGFP at the N-terminus (surmise); also called GFP-USP9X mutant (C1566S); pEGFP-C1-USP9X(C1566S); source: HEK293, transfected, in lysate; also purified from HEK293 (anti-GFP immunoprecipitation, 500 mM NaCl washes, kept on beads)
T1 sequence (P70398 whole entry C1566S, the tested form may be a part): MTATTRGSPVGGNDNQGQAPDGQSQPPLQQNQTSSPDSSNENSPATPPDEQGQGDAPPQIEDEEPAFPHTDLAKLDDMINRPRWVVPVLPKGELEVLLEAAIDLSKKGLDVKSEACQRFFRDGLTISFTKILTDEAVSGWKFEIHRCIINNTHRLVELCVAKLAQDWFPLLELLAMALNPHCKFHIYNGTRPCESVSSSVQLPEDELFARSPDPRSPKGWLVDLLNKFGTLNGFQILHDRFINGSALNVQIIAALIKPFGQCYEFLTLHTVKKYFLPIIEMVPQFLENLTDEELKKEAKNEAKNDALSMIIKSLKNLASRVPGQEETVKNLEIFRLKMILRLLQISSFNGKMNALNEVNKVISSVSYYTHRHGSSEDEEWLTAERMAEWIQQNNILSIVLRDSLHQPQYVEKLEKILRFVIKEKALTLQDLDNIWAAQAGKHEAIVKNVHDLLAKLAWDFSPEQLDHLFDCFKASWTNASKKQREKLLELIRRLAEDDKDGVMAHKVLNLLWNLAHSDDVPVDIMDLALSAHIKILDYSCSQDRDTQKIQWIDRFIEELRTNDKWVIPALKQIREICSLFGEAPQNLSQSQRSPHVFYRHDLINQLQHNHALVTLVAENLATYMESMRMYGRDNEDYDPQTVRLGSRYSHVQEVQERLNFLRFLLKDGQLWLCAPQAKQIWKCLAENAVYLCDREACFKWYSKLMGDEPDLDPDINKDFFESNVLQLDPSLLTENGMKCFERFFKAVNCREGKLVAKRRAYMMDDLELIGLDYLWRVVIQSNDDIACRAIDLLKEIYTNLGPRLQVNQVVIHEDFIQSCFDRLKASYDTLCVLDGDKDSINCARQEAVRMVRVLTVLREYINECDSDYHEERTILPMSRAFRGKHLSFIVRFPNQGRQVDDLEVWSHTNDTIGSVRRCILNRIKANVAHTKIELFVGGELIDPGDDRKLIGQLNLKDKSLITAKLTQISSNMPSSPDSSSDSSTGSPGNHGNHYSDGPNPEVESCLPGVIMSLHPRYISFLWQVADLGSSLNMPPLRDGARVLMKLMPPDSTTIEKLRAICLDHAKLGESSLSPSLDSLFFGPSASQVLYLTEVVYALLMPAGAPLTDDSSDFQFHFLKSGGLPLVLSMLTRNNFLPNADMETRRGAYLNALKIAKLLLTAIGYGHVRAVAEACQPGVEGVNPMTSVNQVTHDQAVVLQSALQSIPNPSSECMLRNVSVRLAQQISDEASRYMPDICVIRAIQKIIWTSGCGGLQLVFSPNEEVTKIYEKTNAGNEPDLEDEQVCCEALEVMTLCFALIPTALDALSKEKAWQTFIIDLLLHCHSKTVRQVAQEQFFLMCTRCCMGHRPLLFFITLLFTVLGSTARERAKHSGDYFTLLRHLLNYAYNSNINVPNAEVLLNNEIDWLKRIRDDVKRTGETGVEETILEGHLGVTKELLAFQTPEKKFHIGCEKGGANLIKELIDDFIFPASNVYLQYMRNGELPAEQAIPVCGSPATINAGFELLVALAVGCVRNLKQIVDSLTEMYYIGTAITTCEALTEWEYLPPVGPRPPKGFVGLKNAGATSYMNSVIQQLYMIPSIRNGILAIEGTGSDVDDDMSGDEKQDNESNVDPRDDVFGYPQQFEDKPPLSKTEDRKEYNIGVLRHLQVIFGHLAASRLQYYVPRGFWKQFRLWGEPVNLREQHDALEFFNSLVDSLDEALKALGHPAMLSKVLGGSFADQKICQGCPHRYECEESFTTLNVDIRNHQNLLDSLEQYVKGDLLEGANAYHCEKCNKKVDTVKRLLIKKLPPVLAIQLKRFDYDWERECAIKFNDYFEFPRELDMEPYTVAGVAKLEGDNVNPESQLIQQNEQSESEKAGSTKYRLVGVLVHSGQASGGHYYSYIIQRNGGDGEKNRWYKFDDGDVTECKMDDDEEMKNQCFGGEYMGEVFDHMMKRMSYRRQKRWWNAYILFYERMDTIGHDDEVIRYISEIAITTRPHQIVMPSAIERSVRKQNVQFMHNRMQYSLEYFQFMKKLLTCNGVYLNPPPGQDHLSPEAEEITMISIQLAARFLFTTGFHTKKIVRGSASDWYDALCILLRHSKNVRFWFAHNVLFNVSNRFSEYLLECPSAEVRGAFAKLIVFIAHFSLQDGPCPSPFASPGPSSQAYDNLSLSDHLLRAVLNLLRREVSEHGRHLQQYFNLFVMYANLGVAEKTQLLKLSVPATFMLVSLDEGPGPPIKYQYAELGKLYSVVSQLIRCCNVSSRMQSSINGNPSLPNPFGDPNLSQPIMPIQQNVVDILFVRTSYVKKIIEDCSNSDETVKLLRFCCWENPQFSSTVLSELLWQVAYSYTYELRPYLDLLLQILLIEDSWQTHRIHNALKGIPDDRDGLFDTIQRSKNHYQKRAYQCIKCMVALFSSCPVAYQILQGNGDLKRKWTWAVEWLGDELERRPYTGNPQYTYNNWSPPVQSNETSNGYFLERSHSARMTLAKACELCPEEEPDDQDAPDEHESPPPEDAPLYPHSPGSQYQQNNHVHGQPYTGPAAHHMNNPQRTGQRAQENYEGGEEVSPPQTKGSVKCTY

[2] = molecular target: T2, GFP-USP9X wild type (mouse) (mouse, UniProt P70398 1-2559); assay: as above; settings: partners not purified
T2 construct: mouse USP9X cDNA (from S. Wood) sub-cloned into pEGFP-C1; pEGFP-C1 is expected to place EGFP at the N-terminus (surmise); also called pEGFP-C1-USP9X; purified USP9X; source: HEK293, transfected, in lysate; also purified from HEK293 (anti-GFP immunoprecipitation, 500 mM NaCl washes, kept on beads)
T2 sequence (P70398 whole entry): as the sequence (P70398 whole entry C1566S, the tested form may be a part) above, with S1566C counted along it

BBS11/TRIM32, endogenous = molecular target: T3, BBS11/TRIM32, endogenous (human (endogenous in HEK293), UniProt Q13049 1-653); assay: pull-down; 1 μg purified Flag-NPHP5 mixed with 1 μg purified USP9X, BBS11 or MARCH7 bound to beads, 4°C, 2 h, extensive washing, Western blot; settings: both partners purified
T3 construct: E3 ubiquitin ligase BBS11/TRIM32, endogenous in HEK293; also called endogenous BBS11; source: endogenous, HEK293 lysate; also immunoprecipitated from HEK293 with anti-BBS11 antibody, 500 mM NaCl washes, kept on beads
T3 sequence (looked up): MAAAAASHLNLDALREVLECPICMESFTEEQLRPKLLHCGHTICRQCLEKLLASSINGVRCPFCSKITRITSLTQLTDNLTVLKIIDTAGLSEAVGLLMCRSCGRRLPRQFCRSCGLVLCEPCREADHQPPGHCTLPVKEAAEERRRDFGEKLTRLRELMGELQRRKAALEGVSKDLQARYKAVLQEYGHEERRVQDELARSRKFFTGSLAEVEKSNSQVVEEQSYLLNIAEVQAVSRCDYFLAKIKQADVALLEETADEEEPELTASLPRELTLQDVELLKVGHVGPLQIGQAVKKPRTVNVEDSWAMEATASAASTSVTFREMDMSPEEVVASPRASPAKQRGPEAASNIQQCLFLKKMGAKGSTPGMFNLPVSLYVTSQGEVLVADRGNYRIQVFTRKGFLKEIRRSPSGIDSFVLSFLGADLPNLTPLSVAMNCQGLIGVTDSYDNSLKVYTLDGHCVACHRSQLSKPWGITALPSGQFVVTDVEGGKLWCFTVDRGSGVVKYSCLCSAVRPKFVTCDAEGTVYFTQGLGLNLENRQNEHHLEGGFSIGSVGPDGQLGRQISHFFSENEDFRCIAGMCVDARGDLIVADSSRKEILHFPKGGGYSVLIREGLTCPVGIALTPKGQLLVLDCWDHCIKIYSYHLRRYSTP

[3] = molecular target: T4, MARCH7/axotrophin, endogenous (human (endogenous in HEK293), UniProt Q9H992 1-704); assay: as above; settings: both partners purified
T4 construct: E3 ubiquitin ligase MARCH7/axotrophin, endogenous in HEK293; also called endogenous MARCH7; source: endogenous, HEK293 lysate; also immunoprecipitated from HEK293 with anti-MARCH7 antibody, 500 mM NaCl washes, kept on beads
T4 sequence (looked up): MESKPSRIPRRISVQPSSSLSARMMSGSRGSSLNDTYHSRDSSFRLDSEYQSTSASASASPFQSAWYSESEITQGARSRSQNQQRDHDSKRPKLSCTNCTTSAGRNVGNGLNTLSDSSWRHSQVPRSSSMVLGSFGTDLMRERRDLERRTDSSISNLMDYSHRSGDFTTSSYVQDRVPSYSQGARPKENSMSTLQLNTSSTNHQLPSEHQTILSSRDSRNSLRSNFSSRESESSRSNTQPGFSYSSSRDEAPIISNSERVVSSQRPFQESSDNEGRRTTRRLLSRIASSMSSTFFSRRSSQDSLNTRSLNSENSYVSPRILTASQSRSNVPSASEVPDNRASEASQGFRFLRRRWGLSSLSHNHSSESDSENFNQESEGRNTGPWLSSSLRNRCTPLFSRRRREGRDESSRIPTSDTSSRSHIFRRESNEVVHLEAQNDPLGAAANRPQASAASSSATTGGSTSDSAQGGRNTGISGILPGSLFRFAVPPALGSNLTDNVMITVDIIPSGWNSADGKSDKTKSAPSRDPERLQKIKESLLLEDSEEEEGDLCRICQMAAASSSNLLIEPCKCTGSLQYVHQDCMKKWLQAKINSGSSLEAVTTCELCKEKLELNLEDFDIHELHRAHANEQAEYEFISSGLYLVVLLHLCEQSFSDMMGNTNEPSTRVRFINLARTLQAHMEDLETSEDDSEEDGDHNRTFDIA

Measured: binding result

B1: Flag-NPHP5 (nephrocystin-5), full length 1-598 (natural protein, UniProt Q15051 1-598, looked up)
chain: MKPTGTDPRILSIAAEVAKSPEQNVPVILLKLKEIINITPLGSSELKKIKQDIYCYDLIQYCLLVLSQDYSRIQGGWTTISQLTQILSHCCVGLEPGEDAEEFYNELLPSAAENFLVLGRQLQTCFINAAKAEEKDELLHFFQIVTDSLFWLLGGHVELIQNVLQSDHFLHLLQADNVQIGSAVMMMLQNILQINSGDLLRIGRKALYSILDEVIFKLFSTPSPVIRSTATKLLLLMAESHQEILILLRQSTCYKGLRRLLSKQETGTEFSQELRQLVGLLSPMVYQEVEEQKLHQAACLIQAYWKGFQTRKRLKKLPSAVIALQRSFRSKRSKMLLEINRQKEEEDLKLQLQLQRQRAMRLSRELQLSMLEIVHPGQVEKHYREMEEKSALIIQKHWRGYRERKNFHQQRQSLIEYKAAVTLQRAALKFLAKCRKKKKLFAPWRGLQELTDARRVELKKRVDDYVRRHLGSPMSDVVSRELHAQAQERLQHYFMGRALEERAQQHREALIAQISTNVEQLMKAPSLKEAEGKEPELFLSRSRPVAAKAKQAHLTTLKHIQAPWWKKLGEESGDEIDVPKDELSIELENLFIGGTKPP
notes: also called IQCB1; source: HEK293, transfected, in lysate; also purified from HEK293 (anti-Flag immunoprecipitation, 500 mM NaCl washes, eluted with Flag peptide)
binds: all assays above

Reference: article PMC5446187, “USP9X counteracts differential ubiquitination of NPHP5 by MARCH7 and BBS11 to regulate ciliogenesis” (PLoS Genetics, 2017)
